“Also recorded” adds a separate entry of the source. Where two headings read alike, the source gives them in different places.
How the values were obtained:
[1] = test system: HIV-1 SF162 (R5) in U373-MAGI-CCR5 cells; assay: HIV infection of ODN-transfected U373-MAGI-CCR5 cells; assay type: cell-based
From the text: Viruses and cells. HIV-1 SF162-R5 is a primary isolate that uses CCR5 as a coreceptor (R5), and was obtained from the NIH AIDS Research and Reference Reagent Program. U373-MAGI-CCR5 cells have modifications of the U373 astrocytoma adherent cells that allow use for HIV transfection and infection studies. U373-MAGI-CCR5 cells express β-gal under the control of HIV LTR, which is trans-activated by the HIV Tat protein in relation to the level of virus replication. In addition, these cells express CD4 and the human chemokine receptor CCR5 on its surface, which allow infection by primary HIV strains. U373 cells are propagated in 90% DMEM, 10% fetal bovine serum, 0.2 mg/ml G418, 0.1 mg/ml hydromycin B, and 1.0 μg/ml puromycin. For transfection and infection studies, U373 cells were maintained in 90% DMEM, 10% fetal bovine serum, and 1% penicillin/streptomycin. Thioaptamer RNase H-specific R12-2, control AP-1-specific or scrambled ODNs were transfected into the cells 24 hr prior to infection using Oligofectamine liposomes, according to the manufacturer's instructions (Invitrogen).
Infection of ODN-transfected U373-MAGI-CCR5 cells. Transfected cells and control cells were infected with HIV at m.o.i. of 0.003 (which consistently gives high levels of viral production) for 2 hr. Equal volumes of medium were then added and infection was continued for 48 hr. HIV replication was quantitated in cell lysates by measurement of β-gal activity, determined by luminometry using the β-Glo kit (Promega), according to the manufacturer's guidelines. β-gal activity is expressed as relative light units (RLU). To determine HIV TCID50 in U373-MAGI-CCR5 cells, serial dilutions (10×) of SF162-R5 virus supernatant were innoculated onto a 24-well plate containing 3×10^4 U373 cells for 2 hr, then equal volumes of complete medium were added, and infection was continued for 48 hr. Cells then were lysed and assayed for HIV-directed β-gal expression, and TCID50 (50% tissue culture infective dose) was calculated from quadruplicates. The p24 antigen capture assay (Beckman-Coulter) was used to determine virus production in some studies, measured by p24 antigen concentration in the culture supernatants harvested at day 7 post-infection.

[2] = target: T1, isolated RNase H domain (Human immunodeficiency virus type 1 group M subtype B, UniProt P04585); assay: RNase H activity of the isolated RNase H domain; assay type: biochemical, HIV
T1 construct: encodes the 15 kDa RNase H domain of HIV-RT; made in house; host or cells: E. coli

[3] = target: T2, RNase H activity of intact HIV-RT (Human immunodeficiency virus type 1 group M subtype B, UniProt P04585); assay: HIV-RT RNase H activity assay (3H-labeled DNA:RNA hybrid); assay type: biochemical; conditions: intact HIV-RT 0.35 μM, R12-2 0.5-2 μM, FIG. 5
T2 construct: The 66 kDa domain, p66, contains an RNase H domain in addition to the DNA polymerase domain; purchased Amersham Bioscience (Piscataway, N.J.)
Protocol: HIV-RT RNase H activity assay. A DNA:RNA heteroduplex containing radiolabeled RNA was prepared as a substrate for the RNase H. A tritium-labeled RNA molecule, the stem loop 2 of the HIV psi-RNA (25), was made by in-vitro transcription using T7 RNA polymerase with a mixture of ATP, CTP, GTP and ^3H-UTP. Transcribed RNA was purified by centrifugation using Microcon YM-3 filters, to remove NTPs and other short RNA sequences. The purified RNA was annealed with the complementary DNA strand to give the DNA:RNA hybrid where the RNA strand is ^3H-labeled. HIV-RT (0.35 μM) was incubated with R12-2 thioaptamer (0.5-2 μM) in a buffer containing Tris-HCl (50 mM, pH 8.0), MgCl2 (6 mM), DTT (10 mM) and KCl (80 mM) for 30 min at 37° C. To this mixture, labeled DNA-RNA hybrid (40 000 cpm) was added to a final volume of 50 μl and incubated at 37° C. for 20 min. The reaction was quenched by addition of 150 μl of 10% trichloroacetic acid and the mixture was placed on ice for 10 min. The reaction mixture was filtered, washed and the amount of radioactivity in the filtrate was measured using a scintillation counter (Beckman Coulter, CA). The amount of radioactivity in the filtrate is regarded as proportional to RNase H activity.
The ability of the thioaptamer R12-2 to inhibit RNase H activity was tested using a radio-labeled substrate of a DNA:RNA hybrid duplex, as described in Methods. […]

[4] = target: T3, HIV-RT (Human immunodeficiency virus type 1 group M subtype B, UniProt P04585); assay: EMSA binding to intact HIV-RT
T3 construct: The 66 kDa domain, p66, contains an RNase H domain in addition to the DNA polymerase domain; purchased Amersham Bioscience (Piscataway, N.J.)
Protocol: Electrophoresis Mobility Shift Assay (EMSA). One of the selected thioaptamers (R12-2) was used to test the specific binding to RNase H. R12-2 was labeled with fluorescein at the 5′-end by enzymatic synthesis and was incubated with increasing concentrations of HIV-RT RNase H in Tris-HCl buffer (50 mM. pH 8), MgCl2 (10 mM) and DTT (40 mM) at 37° C. for 30 minutes. The reaction mixture was loaded on an 8% native polyacrylamide gel, electrophoresed and analyzed on the Flor Chem 8800 imager (Alpha Innotech, CA). Similar experiment was performed with the E.coli RNase H, to test whether R12-2 binds to the RNase H from E.coli.
Next, the binding of R12-2 to the intact HIV-RT by EMSA methods was also determined. In FIG. 4a, the protein in the band was detected by staining the gel with Coomassie blue.

[5] = target: T4, isolated domain of RNase H HIV-RT (Human immunodeficiency virus type 1 group M subtype B, UniProt P04585); assay: NMR titration of R12-2 with isolated RNase H domain; assay type: binding, HIV-1; conditions: addition of RNase H to R12-2
T4 construct: encodes the 15 kDa RNase H domain of HIV-RT; made in house; host or cells: E. coli
Protocol: NMR Spectroscopy. Uniformly ^15N labeled RNase H and chemically synthesized R12-2 were used to monitor the binding of the R12-2 thioaptamer to the isolated domain of RNase H. The oligonucleotide concentrations were calculated from the absorbance value and using the molar absorption coefficients calculated using the nearest neighbor parameters. ^15N-HSQC spectra (26) of the isolated RNase H in the presence of 25 mM MgCl2 were acquired on Varian UnityPlus 750 MHz instrument equipped with pulse field gradients and using triple resonance probes. One dimensional proton NMR and 2D NOESY spectra (250 ms mixing time) of R12-2 thioaptamer in 95% H2O/5% D2O were collected at 750 MHz. The signals from the […] imino protons of R12-2, that are very sensitive to changes in the DNA conformation, were monitored during the titration of RNase H to the R12-2.

B1: R12-2: 62-mer duplex DNA thioaptamer, monothiophosphate 5′ to dA, selected against RNase H domain of HIV-RT; probably SEQ ID NOS. 1 and 2 (nucleic acid)
chain 1: AATGCTTCCACGAGCCTTTCGGGGTTGGTGTACAGTGGATGGCTGCGAGGCGGTAGTCTATTC
chain 2: GAATAGACTACCGCCTCGCAGCCATCCACTGTACACCAACCCCGAAAGGCTCGTGGAAGCAT
modifications: DNA, backbone and methylation of C not given here; duplex DNA thioaptamer, monothiophosphate 5' to dA
notes: 62-mer duplex DNA thioaptamer, monothiophosphate 5′ to dA, selected against RNase H domain of HIV-RT; 1 and 2
B1 was tested, and the reduction of infection ([1]; Oligofectamine transfection 24 h prior to infection, HIV-SF162 m.o.i. 0.003, compared with untransfected or OF-only cells, FIG. 6) was “greater than 75%”, the “inhibition of the virus at high m.o.i.” value ([1]; R12-2 0.05 μg/ml, inocula m.o.i. 0.05 to 0.0005, FIG. 8) was “significant inhibition” and the “reduction of virus production” value ([1]; high m.o.i.) was “more than 50%”. For the same molecule, the “suppression of virus compared with AZT” value ([1]; m.o.i.≦0.005, AZT 10 μM, FIG. 8) was “comparable to that seen with AZT”, the IC50 ([1]; transfected 24 hrs prior to infection with HIV SF162, 48 hrs, doses 0.03 to 2.0 μg/ml, FIG. 7, read-out: IC50 (inhibition of HIV infection)) was less than 100 nM and the “effect on HIV infection / viral production” value ([1]; transfected U373-MAGI-CCR5 cells, FIG. 6) was “inhibits; also recorded: markedly reduces”. For the same molecule, the “effect against the isolated RNase H domain” value [2] was “not effective”, the “inhibition of RNase H activity” value [3] was “inhibit; also recorded: shows inhibition” and the “binding to intact HIV-RT (EMSA)” value ([4]; FIG. 4A) was “is binding”. The Kd ([4]; intact HIV-RT, EMSA bound band intensity, Hill Plot, FIG. 4B, read-out: dissociation constant Kd) was 70 nM, the Kd ([4]; specific binding to HIV-RT, read-out: binding constant) was 70 nM and the “binding to isolated RNase H domain (NMR, imino proton signal broadening)” value [5] was “binding”.
